One molecule from patent publication US11525133 (dated 2022) can be followed below.

This experiment addresses p53-TPR2. The experiment in a line: ITC. (In general: In ITC the heat of successive injections is recorded.)

B1: Mdm2 N-terminal domain (other)
chain: SQIPASEQETLVRPKPLLLKLLKSVGAQKDTYTMKEVLFYLGQYIMTKRLYDEKQQHIVYCSNDLLGDLFGVPSFSVKEHRKIYTMIYRNLVVVNQQESSDSGTSVSEN
Take B1: binding was put at a Kd of 54 nM.
